The text below walks through data of publication PMC9355967.

The target in test [1] is FLAG-tagged full-length AFDN (mouse) (UniProt Q9QZQ1). The experiment in a line: co-IP; HEK 293T cells co-transfected; anti-FLAG IP on Protein G sepharose, Western blot with anti-GFP or antibodies to the endogenous protein; TX100 buffer (20 mM Tris pH 7.5, 150 mM NaCl, 1% NP-40, 1% Triton X-100, 5 mM MgCl2 for GTPases); also after FastAP phosphatase treatment of lysates; with or without co-expressed GTPases (densitometry in Fig. 4g).
Sequence of FLAG-tagged full-length AFDN (mouse) (Q9QZQ1 whole entry): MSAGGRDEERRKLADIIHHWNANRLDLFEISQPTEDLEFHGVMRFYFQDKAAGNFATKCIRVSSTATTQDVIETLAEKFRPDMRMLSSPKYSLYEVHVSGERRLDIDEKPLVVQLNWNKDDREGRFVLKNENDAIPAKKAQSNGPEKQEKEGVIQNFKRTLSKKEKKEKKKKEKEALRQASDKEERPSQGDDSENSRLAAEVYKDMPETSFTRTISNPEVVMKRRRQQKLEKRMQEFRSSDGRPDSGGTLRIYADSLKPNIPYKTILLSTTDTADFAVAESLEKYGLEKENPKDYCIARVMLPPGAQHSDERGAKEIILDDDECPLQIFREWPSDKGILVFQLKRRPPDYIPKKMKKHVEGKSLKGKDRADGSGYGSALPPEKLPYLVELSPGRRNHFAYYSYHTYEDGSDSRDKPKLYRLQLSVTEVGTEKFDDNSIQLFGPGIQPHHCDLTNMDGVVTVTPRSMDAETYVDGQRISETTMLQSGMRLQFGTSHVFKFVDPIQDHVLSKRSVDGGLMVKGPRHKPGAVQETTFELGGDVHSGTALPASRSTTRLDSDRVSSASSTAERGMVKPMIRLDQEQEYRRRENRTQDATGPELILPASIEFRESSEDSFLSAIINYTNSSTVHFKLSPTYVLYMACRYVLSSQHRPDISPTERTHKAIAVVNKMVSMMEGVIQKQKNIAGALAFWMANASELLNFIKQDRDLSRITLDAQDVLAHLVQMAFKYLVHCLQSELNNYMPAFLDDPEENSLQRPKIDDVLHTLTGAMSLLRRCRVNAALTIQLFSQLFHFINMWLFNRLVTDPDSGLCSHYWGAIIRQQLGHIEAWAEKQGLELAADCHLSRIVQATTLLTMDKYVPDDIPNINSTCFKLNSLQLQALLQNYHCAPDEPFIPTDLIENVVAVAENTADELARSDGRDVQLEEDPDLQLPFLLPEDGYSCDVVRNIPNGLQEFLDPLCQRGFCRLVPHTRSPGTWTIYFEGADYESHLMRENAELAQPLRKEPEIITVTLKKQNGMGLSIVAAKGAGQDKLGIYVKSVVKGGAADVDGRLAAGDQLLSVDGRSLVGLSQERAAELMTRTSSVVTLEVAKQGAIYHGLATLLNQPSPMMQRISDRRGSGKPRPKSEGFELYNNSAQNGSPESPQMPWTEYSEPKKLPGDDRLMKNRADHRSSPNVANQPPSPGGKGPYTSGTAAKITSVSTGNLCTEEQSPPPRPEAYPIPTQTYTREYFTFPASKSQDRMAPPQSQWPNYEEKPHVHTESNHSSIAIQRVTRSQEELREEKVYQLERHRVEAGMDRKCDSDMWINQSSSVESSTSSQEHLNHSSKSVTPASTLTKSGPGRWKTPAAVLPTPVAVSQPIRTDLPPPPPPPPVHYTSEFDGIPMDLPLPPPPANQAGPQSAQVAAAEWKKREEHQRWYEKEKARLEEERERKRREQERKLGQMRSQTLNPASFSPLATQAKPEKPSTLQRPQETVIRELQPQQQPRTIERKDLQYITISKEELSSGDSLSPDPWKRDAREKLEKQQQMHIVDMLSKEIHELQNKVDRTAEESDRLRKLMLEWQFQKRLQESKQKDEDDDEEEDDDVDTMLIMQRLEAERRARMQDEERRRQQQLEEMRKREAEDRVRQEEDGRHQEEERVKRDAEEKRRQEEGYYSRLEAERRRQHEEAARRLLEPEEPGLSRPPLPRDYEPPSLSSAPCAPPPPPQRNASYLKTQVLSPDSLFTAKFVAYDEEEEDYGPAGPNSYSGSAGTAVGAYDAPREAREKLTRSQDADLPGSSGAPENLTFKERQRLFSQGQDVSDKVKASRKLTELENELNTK

Test [2] addresses purified AFDN FHA domain Δex9 (mouse). The experiment in a line: ITC; MicroCal ITC200, 25 °C, 20 mM Tris-HCl pH 7.5, 150 mM NaCl, 1 mM DTT.

Sequence of purified SCRIB PDZ1 domain (718-820) (Q14160 718-820): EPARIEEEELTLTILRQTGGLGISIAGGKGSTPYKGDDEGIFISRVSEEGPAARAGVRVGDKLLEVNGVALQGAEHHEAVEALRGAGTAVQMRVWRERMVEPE

Regarding “EGFP-tagged full-length SCRIB (from UniProt Q14160 1-1655) (natural protein)”, in test [1], the fold increase of SCRIB co-precipitated with AFDN, KRAS-G12V co-expressed, against wild-type KRAS turned out to be 8 fold; the fold increase of SCRIB co-precipitated with AFDN, RAP1B-G12V co-expressed, against wild-type KRAS is 1.7 fold; the fold increase of SCRIB co-precipitated with AFDN, RAP2C-G12V co-expressed, against wild-type KRAS was determined as 2.6 fold.
“purified SCRIB PDZ1 domain (718-820) (from UniProt Q14160 718-820) (domain or fragment)” registered a Kd in test [2] of 22.9 µM.
